Experimental data reported in the DeepSol protein solubility set.

Assay: soluble on expression in E. coli; label from the status in PepcDB or PDB records

Sequence	soluble on expression in E. coli
MVTMALDSVTIEVIRNSAIYISEEMGVVLRDTAFSPNIKDRLDHSCAVLAPDGSLVAQAEHIPVHLGSMSVGVVNLVKYIEDLGMDLGVGDVVVTNDPYISGTHLNDLMAIKPVYAGDFHIAYVANKAHHVDVGGLVPGSIGGGAKELREEGIVIEPVKVVEAGSVRWDIVRMLEANVRTPRYFRGDLMAQIASLNVGEARLRELAGRYGGSALVEAWESILGYTERYTREKIGEVAALASGVYRARDYMETSKGELLEIVATLTIDKGRLTVDYTGTSKQVDEPINAVYGVTVAATLFALKSTLDPEMPMNQGFFRIVEIKAPEGTLVNPLKPAPVGGGNVETSQRIADVVFRALAEALPERVPAASCGTMSNVMVGGRGWAFYETNACGSGARPCCDGVDGVHTNMTNTLNTPIEVIEREYPILFNAYELRPDSGGPGMYRGGLGVVRAFTALEDNVTITIFAERGLTRPWGLSGGRPGRSFEAVITRAAGEVERLMSKHTAKLNRGDTIAIYTPGGGGYGDPCKRDRSLIERDLREGRITMESAVKDYCYDS	not soluble
MVTREEFVARFGGVFEHSPFIAERAYDAGGAGLELTAKAVHGALCAQFRVASEAERLGVLRAHPDLAGKLAIAGELTADSRNEQAGAGLDRLSPQEHARFTQLNSAYTEKFGFPFIIAVKGLNRHDILSAFDTRIDNNAAQEFATATGQVEKIAWLRLASMLPEGLEHHHHHH	soluble
MVTVREAKLEDIKDIAKVHVDSWRTTYHEIIPIDYLNSLNYKEFEDKWKSRSLKGVFVAQDEKGSVFGFASFGPIRSEQEGYDGELYAIYLLEERQRQGAGRALLAKGAEFLLQHGFSSMFVWVIEQNPSIIFYQAYSPERVAEDNFEIAGVRLKEVGLGWPDLSALKTLLNR	soluble
MVVLGRIAGPHGIRGQIKVIPFTEYVDGLMEYPVWCLSRDEKNWQIVRPATFFIHDNLLIVTLTGYSDRTSASELKGLLVAVPRSQLPPLSKDGEDGYYWTDLIGISVVNMQGEPLGTVAGLFETGANDVLRVRLSGSSKDELIPFVDQVIRQVDLESRQITVDWELGYLEHHHHHH	not soluble
MVYFYESKPTEYSTPYQIVMGKDKFENDLLIKWSYRELNYVWFHADKYSSGHVYLKLRPNEKTIDDIPQEVICDCLQLCKSESIQGNKMPQCTILITPWHNLRKNRYMNPGEVSFKSLRQCRKMECGARDNKILNRLAKTRVELFNNVEATLNEAKKTKNGDFFVNYIESNRSNLIEEEKLRKVAKKNQKKKNKQSKDEVTDDMQLEV	not soluble
MVYYIYHSAFVIEVEKSILIFDFYKFPSNKKKEKEEFFNRFIKRIDKKVYIFSTHSHSDHFNKEILTWLEMNENIKYILSDDIRIYKHKNFYFTKEGDSFELDNLKISTFGSTDLGSSFYVNTENKNIFHSGDLHFWHWEDDTPEEEKTMYDAYMVQLEKIKKLDRIDIAFVPVDPRLGVNTLEGVELFYKILKPKIIIPMHFSDDYSQMKNFIEKFKYNDDVKIIEIKDSMEKVLELEHHHHHH	not soluble
MWKIELSDWTDDEFKHIVDFFTNQNILQPLETRRVRYLEMLLFNRSFMIFFPNIIDNHPELFMPCKARPNPPDVPIAVRVFTFEDRKMVMRSELFKAINMKYPNRKPIEYNDVNGFLYAMELKDVFKNFGDLWHDIDFLNTPINRTNQKAVPIITSTGDFCIPGFRAFSEIFYLMSLIMRVFQKVKINSMHVLDDYIKILVSQLEPFLKSQCFITTDAFQKIEQEMCNYWKKFENIPVKDIRDVKRFTLNDLKKELKYLGITEAFPDVLVYADLAFPKLLESVSQNKLETIDMFEAVAECTYCCLLDKYLELVQVWFPQFGSHKMFCSILPPDPVDIFLGVSSSHKDLRRYIKGEDKENMKVKDTSNPQVMKNQRENPKSISKPEGNNSDTPTESGNSSSSKVESSMANCTDCSGVRKEMKTVQNVLKDVQTQLTTMKHKSEKFEKNMTGSVERSKKAEQRLQEEKLDHVKIQVEAKKKLELKLEEVETWKKQVSALWNCKSDHEALNTKLSKCVEKGKKLKEINEKVSNSRDQLSTKVFELKLQLNRELETAETLKNERKDSAKLRNEVNQLKDQLEREREIAYGLQEEASKLRVGTGKDVKRQILESENAQLRQEKQRREMEKSSLLETKMILSRQNEEQHKLIQSLMDQNHTEEGPSNHEDENGSYRKVLWKHQKIKDLYRKGEQQREAEEMVNKLISLNQHPEVQHISFLELESFKKQISDYLHTVEKNIQKIKRNDDFTNLEPLPEPPKMSDKFMRLYWNEMNKQPSTSDLPSAELDDTDQL	not soluble
MWKLQSPHSCVPMLVWDCSLHPPSQYCSPLFETAVAENINRLSSHCIKKKSIQRGEKMKKILKLLSCIVVLTIAGCLNQPPPSTLALWEKPGADKAMTQQALTKCGWKPVYASPDDMNSYASEFASVYECMKKAGFRYKLQDSKGIYFSPPAKSSSFLSNLMVAGYQQFMENESFGVSNSTKHERELMLRIEKEKKRQKTKKSLQR	not soluble
MWKTYTRYQAVYKKAQWPLTLYFDGECPLCAREIKVLRARAAADRLLFVDISDDAFDASLLGLTLPQMESSLHARFDDGTWVTGLDATLWSWRAAGLGKWVAPLSWPILRPLFTVLYRLFCRFRPHLAWLPHPDGGRRCSKGSCTVAESVVMKSEASAEKKIS	not soluble
MWQQAIGDALGITARNLKKFGDRFPHVSDGSNKYVLNDNTDWTDGFWSGILWLCYEYTGDEQYREGAVRTVASFRERLDRFENLDHHDIGFLYSLSAKAQWIVEKDESARKLALDAADVLMRRWRADAGIIQAWGPKGDPENGGRIIIDCLLNLPLLLWAGEQTGDPEYRRVAEAHALKSRRFLVRGDDSSYHTFYFDPENGNAIRGGTHQGNTDGSTWTRGQAWGIYGFALNSRYLGNADLLETAKRMARHFLARVPEDGVVYWDFEVPQEPSSYRDSSASAITACGLLEIASQLDESDPERQRFIDAAKTTVTALRDGYAERDDGEAEGFIRRGSYHVRGGISPDDYTIWGDYYYLEALLRLERGVTGYWYERGR	soluble
MYAIAEDTLPARVLKELLLYRRRYPEHRQSASEADEIRRIEQVQLPRIAAFIEAGEPIEFVLPAFPAKSPNPGKVLDSRPDMAERLSLSFLNHLCQRIQLFYAPGAKITVCSDGRVFGDLVRIGDAHISAYQDALRLMIEEIGATHIGVFNLEDVRAFEAQRDNHEQLRQLLIGGYAEPLESIRETLLASEEGLLLYRAITRFLYEDGLTPDYQGSKTALQRDAKERAYGVIQRSWAWGALLADQFPRAIRLSIHPQPADSLKFGIHMMPTRDDWLTPWHGVAVNTEDRFVLMKRSEVLELGGELVQINGQPSHYRLPARAARRAAVALEHHHHHH	not soluble
MYAKANNRTVLSFSEQQIIDCGNFTSPCQENILSHEFIKKNGVVTEADYPYVGKENEKCKYDENKIKLWPTNMLLVGNLPETLLKLFIKEHGPGYFRMKAPPSFFNYKTGIYSPTQEECGKATDARSLTIVGYGIEGGQNYWIVKGSFGT	not soluble
MYDFVIIGGGIIGMSTAMQLIDVYPDARIALLEKESAPACHQTGHNSGVIHAGVYYTPGSLKAQFCLAGNRATKAFCDQNGIRYDNCGKMLVATSDLEMERMRALWERTAANGIEREWLNADELREREPNITGLGGIFVPSSGIVSYRDVTAAMAKIFQSRGGEIIYNAEVSGLNEHKNGVVIRTRQGGEYEASTLISCSGLMADRLVKMLGLEPGFIICPFRGEYFRLAPEHNQIVNHLIYPIPDPAMPFLGVHLTRMIDGSVTVGPNAVLAFKREGYRKRDFSFSDTLEILGSSGIRRVLQNHLRSGLGEMKNSLCKSGYLRLVQKYCPRLSLSDLQPWPAGVRAQAVSPDGKLIDDFLFVTTPRTIHTCNAPSPAATSAIPIGAHIVSKVQTLLASQSNPGRTLRAARSVDALHAAFNQ	not soluble
MYFIGCGYNAFPVGSEYADFPHMDDKHKDREIRKFRYIIHAEQNALTFRCQDIKPEEHSMIFVTKCPCDECVPLIKGAGIKQIYAGDVDVGKKKADISYMKFGELEGVRKFTWQLNPSEAYSLDPNEPERREKHLSIKRSH	not soluble
MYFLTSSLPTTLMNVALTSWARAFAINVFPQPGGPYKRTPFGGSIPTSSKSSGCLRGSSMASLNSCSCFFKPPISLYVTFGLSMTSNPSTVGSLDVGSISTTAIVLLEHHHHHH	not soluble
